Experimental findings from patent US20220144930A1 are described below.

Assay [1] addresses VEGF-165, VEGFC and VEGFD mixture. As to the kind of experiment: cell-based or functional assay.
For assay [2], the target named is recombinant human VEGF165 protein (human) (UniProt P15692). As to the kind of experiment: cell-based or functional assay.

Sequence of EYLEA (Fc fusion) (chain): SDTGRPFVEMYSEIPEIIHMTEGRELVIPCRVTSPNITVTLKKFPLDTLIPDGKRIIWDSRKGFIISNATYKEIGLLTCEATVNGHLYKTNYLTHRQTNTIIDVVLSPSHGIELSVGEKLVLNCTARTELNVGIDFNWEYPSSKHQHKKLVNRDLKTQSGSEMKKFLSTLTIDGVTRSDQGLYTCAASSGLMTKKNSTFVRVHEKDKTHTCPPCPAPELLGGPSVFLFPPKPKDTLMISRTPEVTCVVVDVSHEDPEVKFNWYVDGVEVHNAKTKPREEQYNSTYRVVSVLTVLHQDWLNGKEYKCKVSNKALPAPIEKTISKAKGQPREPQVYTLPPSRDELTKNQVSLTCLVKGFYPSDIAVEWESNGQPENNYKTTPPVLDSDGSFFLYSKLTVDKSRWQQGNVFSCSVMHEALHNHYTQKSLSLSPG

For Avastin (bevacizumab) (antibody), in assay [1], the EC50(nM), neutralizing VEGF165, VEGFC and VEGFD mixture, HUVEC proliferation was 0.77 nM; the Maximum neutralization rate Emax (%), VEGF165, VEGFC and VEGFD mixture, HUVEC proliferation turned out to be 58.5%.

Regarding EYLEA (Fc fusion), in assay [2], the EC50(nM), neutralizing VEGF165 at 10 ng/mL, HUVEC proliferation came to 0.16 nM; the EC50(nM), neutralizing VEGF165 at 100 ng/mL, HUVEC proliferation was 2.9 nM; the EC50(nM), neutralizing VEGF165 at 1000 ng/mL, HUVEC proliferation turned out to be 40.2 nM; the maximum neutralization rate (%), VEGF165 at 10 ng/mL, HUVEC proliferation is 101%. Besides, in assay [2], the maximum neutralization rate (%), VEGF165 at 100 ng/mL, HUVEC proliferation is 98.7% and the maximum neutralization rate (%), VEGF165 at 1000 ng/mL, HUVEC proliferation was found to be 80.2%.
